# From patent publication US20200291075A1 (TRUSTEES OF PRINCETON UNIVERSITY, published 2020)
# “And” between values parts separate entries of the source, which are not always exact repeats. Equal values may be shown once.
# T1: YFP-SH2 (human, UniProt P00519 112-232)
# T1 construct: domain: SH2 domain; also called SH2-tagged YFP; EZ-L703
# T1 sequence (looked up): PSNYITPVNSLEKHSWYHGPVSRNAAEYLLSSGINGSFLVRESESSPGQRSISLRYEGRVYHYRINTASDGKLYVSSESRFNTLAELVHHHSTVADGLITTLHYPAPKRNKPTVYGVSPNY
# T2: SH2-PDC1 (human; Saccharomyces cerevisiae)
# T2 construct: No His tag; also called SH2-tagged Pdc1p; EZ-L886
# T2 chain: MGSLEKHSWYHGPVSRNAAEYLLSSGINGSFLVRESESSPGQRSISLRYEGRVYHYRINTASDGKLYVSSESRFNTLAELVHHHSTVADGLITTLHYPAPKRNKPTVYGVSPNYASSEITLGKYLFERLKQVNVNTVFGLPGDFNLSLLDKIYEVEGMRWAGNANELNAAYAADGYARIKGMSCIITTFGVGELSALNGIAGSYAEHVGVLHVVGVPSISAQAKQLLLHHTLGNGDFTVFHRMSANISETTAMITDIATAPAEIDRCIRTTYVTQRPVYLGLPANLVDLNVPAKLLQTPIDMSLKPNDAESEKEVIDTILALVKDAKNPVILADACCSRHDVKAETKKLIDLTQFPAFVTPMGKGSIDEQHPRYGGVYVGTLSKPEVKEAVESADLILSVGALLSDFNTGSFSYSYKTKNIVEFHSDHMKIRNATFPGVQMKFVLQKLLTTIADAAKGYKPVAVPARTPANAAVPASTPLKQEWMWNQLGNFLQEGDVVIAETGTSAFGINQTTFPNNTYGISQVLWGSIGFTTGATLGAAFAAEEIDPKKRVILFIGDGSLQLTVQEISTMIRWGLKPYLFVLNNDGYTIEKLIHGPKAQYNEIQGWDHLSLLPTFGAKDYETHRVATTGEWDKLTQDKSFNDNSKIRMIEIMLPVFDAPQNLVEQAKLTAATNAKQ
# T3: His6-YFP-SH2 (human, UniProt P00519 112-232)
# T3 construct: domain: SH2 domain; also called 6xHis-YFP-protein fusion
# T3 sequence (looked up): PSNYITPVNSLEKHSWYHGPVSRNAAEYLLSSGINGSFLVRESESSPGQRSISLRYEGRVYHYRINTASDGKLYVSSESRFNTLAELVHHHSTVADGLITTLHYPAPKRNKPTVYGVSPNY
# Key:
# YFP-SH2 [1] = biological target: T1, YFP-SH2; assay: BLI; binder on Ni-NTA sensor, YFP-SH2 in solution; ambient light
# YFP-SH2 [2] = biological target: T1, YFP-SH2; assay: BLI (Octet RED96e); His-tagged binder on Ni-NTA sensor, YFP-SH2 in solution
# YFP-SH2 [3] = biological target: T1, YFP-SH2; assay: BLI; lit-state against dark-state OptoMB variants
# Description: (§1) Ni-NTA sensors (ForteBio) were first equilibrated using Buffer A for 10 minutes prior the measurement. A volume of 200 μL of Buffer A or protein solutions (previously dialyzed with Buffer A when needed) was added to clear, 96-well plates. During the experimental run, the Ni-NTA sensors were first immersed in Buffer A to record the baseline. […] The sensors were then transferred back into Buffer A to remove unbound protein. […] To measure the unbinding rate constant (koff), the sensors were then moved to wells containing Buffer A to trigger dissociation of YFP-SH2. To measure binding kinetics of the light state, the lid of the Octet remained open during the measurement and a blue LED panel was held above the 96-well plate, maintaining constant blue illumination for the duration of the experiment. […] The raw binding and unbinding data were simultaneously fit to models of the binding and unbinding reactions:
# YFP-SH2 [4] = biological target: T1, YFP-SH2; assay: BLI; His-tagged binder on Ni-NTA sensor, YFP-SH2 in solution; light conformation
# Description: as §1
# YFP-SH2 [5] = biological target: T1, YFP-SH2; assay: LCAC in batch, Talon resin; share of the resin-bound target eluted by blue light
# Description: (§2) After elution, beads were washed with imidazole to recover any remaining protein bound to the beads in order to estimate the capacity and yields of the resin.
# (§3) The Resin was rotated in 50 mL conical tubes (covered with aluminum foil) at room temperature for 20 minutes and then poured in 20 mL BioRad glass Econo-Columns and washed with Buffer A (50 column volumes). […] The mixture was then vertically rotated gently for 45 minutes in 15 ml conical tubes.
# YFP-SH2 [6] = biological target: T1, YFP-SH2; assay: BLI; binder on Ni-NTA sensor, YFP-SH2 in solution; lit conformation, 450 nm light
# Description: as §1
# YFP-SH2 [7] = biological target: T1, YFP-SH2; assay: BLI; binder on Ni-NTA sensor, YFP-SH2 in solution; lit conformation, ambient light
# Description: as §1
# YFP-SH2 [8] = biological target: T1, YFP-SH2; assay: LCAC in batch; His-tag bound OptoMB on Talon cobalt resin, target from crude E. coli lysate bound in the dark
# Description: as §2, §3
# YFP-SH2 [9] = biological target: T1, YFP-SH2; assay: BLI; binder on Ni-NTA sensor, YFP-SH2 in solution; dark conformation, 450 nm light
# Description: as §1
# YFP-SH2 [10] = biological target: T1, YFP-SH2; assay: BLI; binder on Ni-NTA sensor, YFP-SH2 in solution; dark conformation, ambient light
# Description: as §1
# YFP-SH2 [11] = biological target: T1, YFP-SH2; assay: BLI; His-tagged binder on Ni-NTA sensor, YFP-SH2 in solution; dark conformation; average of three measurements
# Description: as §1
# YFP-SH2 [12] = biological target: T1, YFP-SH2; assay: BLI; Kd of OptoMBV416L (light) against Kd of OptoMBC450V (dark)
# Description: as §1
# YFP-SH2 [13] = biological target: T1, YFP-SH2; assay: BLI; His-tagged binder on Ni-NTA sensor, YFP-SH2 in solution; light conformation; average of three measurements
# Description: as §1
# SH2-PDC1 [14] = biological target: T2, SH2-PDC1; assay: LCAC in batch, Talon resin; share of the resin-bound target eluted by blue light
# Description: as §2, §3
# YFP-SH2 [15] = biological target: T1, YFP-SH2; assay: BLI; SUMO-tagged binder on Ni-NTA sensor, YFP-SH2 in solution; lit conformation, ambient light
# Description: as §1
# SH2-PDC1 [16] = biological target: T2, SH2-PDC1; assay: LCAC in batch; His-tag bound OptoMB on Talon cobalt resin, target from crude E. coli lysate bound in the dark
# Description: as §2, §3
# His6-YFP-SH2 = biological target: T3, His6-YFP-SH2; assay: pull-down on His6-YFP-SH2 cobalt beads, SDS-PAGE densitometry
# Description: The His6-YFP-SH2 supernatant was then mixed with 4.5 mL of a 50% suspension of Co-charged agarose resin (Talo®), previously equilibrated in Binding buffer, and incubated at 4° C., rocking for 45 min. The suspension was sedimented by gravity and the supernatant discarded. The beads were then thoroughly washed with Binding buffer with approximately 50 times the resin or column volume. The beads (now with His6-YFP-SH2 bound) were then finally resuspended in Binding buffer to a total volume of 13.5 mL. The bead suspension was equally divided into 9 conical tubes of 15 mL (having each 1.5 mL of the bead suspension). Four of these tubes were used for experiments under blue light with LED panels (450 nm and intensity of 45 μmol/m²/s) while the other four were used for experiments in the dark (wrapped in aluminum foil). Experiments were performed in a dark room and red light was used occasionally for visualization purposes. The remaining tube was left as a control for His6-YFP-SH2 binding. Samples of 2.5 mL of bacterial clarified lysates containing either the monobody HA4 supernatant or each one of the chimeras were added to separate tubes of resin. The mixtures were then incubated for 45 minutes (at 4° C. and constant vertical rotation of 20 rpm) under blue light or dark conditions. […]
binder,measurement,setting,value
"Monobody HA4 (His6-tagged, purified) (designed binder) HHHHHHSSGENLYFQGHASGSSVSSVPTKLEVVAATPTSLLISWDAPMSSSSVYYYRITYGETGGNSPVQEFTVPYSSSTATISGLSPGVDYTITVYAWGEDSAGYMFMYSPISINYRTC",Kd,YFP-SH2 [1],0.28 µM
same,koff,YFP-SH2 [1],0.0145 s⁻¹
same,kon,YFP-SH2 [1],51000 M⁻¹ s⁻¹
same,Kd,YFP-SH2 [2],0.23 µM
same,koff,YFP-SH2 [2],0.0145 s⁻¹
same,kon,YFP-SH2 [2],63100 M⁻¹ s⁻¹
"OptoMB (His6-tagged, wild-type AsLOV2) (designed binder, also called OptoMB 1; OptoMB 2) HHHHHHSSGENLYFQGHASGSSVSSVPTKLEVVAATPTSLLISWDAPMSSSSVYYYRITYGETGGNSPVQEFTVPYSGLERIEKNFVITDPRLPDNPIIFASDSFLQLTEYSREEILGRNCRFLQGPETDRATVRKIRDAIDNQTEVTVQLINYTKSGKKFWNLFHLQPMRDQKGDVQYFIGVQLDGTEHVRDAAEREGVMLIKKTAENIDEAAGSSTATISGLSPGVDYTITVYAWGEDSAGYMFMYSPISINYRTC","fold change of kon and koff, light against dark",YFP-SH2 [3],~20 fold
same,koff,YFP-SH2 [4],0.21 s⁻¹
same,kon,YFP-SH2 [4],< 1000 M⁻¹ s⁻¹
same,Yield (% of recovery from the resin),YFP-SH2 [5],17.8%
same,Kd,YFP-SH2 [6],> 100 µM
same,koff,YFP-SH2 [6],0.21 s⁻¹
same,kon,YFP-SH2 [6],< 1000 M⁻¹ s⁻¹
same,Kd,YFP-SH2 [7],> 100 µM
same,koff,YFP-SH2 [7],0.34 s⁻¹
same,kon,YFP-SH2 [7],< 1000 M⁻¹ s⁻¹
same,Resin Capacity,YFP-SH2 [8],5.85 mg/mL
"OptoMBC450V (designed binder, also called OptoMBC450V 1; OptoMBC450V 2) HHHHHHSSGENLYFQGHASGSSVSSVPTKLEVVAATPTSLLISWDAPMSSSSVYYYRITYGETGGNSPVQEFTVPYSGLERIEKNFVITDPRLPDNPIIFASDSFLQLTEYSREEILGRNVRFLQGPETDRATVRKIRDAIDNQTEVTVQLINYTKSGKKFWNLFHLQPMRDQKGDVQYFIGVQLDGTEHVRDAAEREGVMLIKKTAENIDEAAGSSTATISGLSPGVDYTITVYAWGEDSAGYMFMYSPISINYRTC",Kd,YFP-SH2 [9],0.27 µM
same,koff,YFP-SH2 [9],0.013 s⁻¹
same,kon,YFP-SH2 [9],48000 M⁻¹ s⁻¹
same,koff,YFP-SH2 [10],0.006 s⁻¹ and 0.013 s⁻¹
same,kon,YFP-SH2 [10],110000 M⁻¹ s⁻¹ and 56000 M⁻¹ s⁻¹
same,Kd,YFP-SH2 [11],0.19 µM
same,koff,YFP-SH2 [11],0.01 s⁻¹
same,kon,YFP-SH2 [11],71000 M⁻¹ s⁻¹
"OptoMBV416L (designed binder, T0006 lists the V416L plasmid with His6-SUMO; also called OptoMBV416L 1; OptoMBV416L 2) HHHHHHGSGSGSDQEAKPSTEDLGDKKEGEYIKLKVIGQDSSEIHFKVKMTTHLKKLKESYCQRQGVPMNSLRFLFEGQRIADNHTPKELGMEEEDVIEVYQEQTGGHMASKGSSVSSVPTKLEVVAATPTSLLISWDAPMSSSSVYYYRITYGETGGNSPVQEFTVPYSGLERIEKNFLITDPRLPDNPIIFASDSFLQLTEYSREEILGRNCRFLQGPETDRATVRKIRDAIDNQTEVTVQLINYTKSGKKFWNLFHLQPMRDQKGDVQYFIGVQLDGTEHVRDAAEREGVMLIKKTAENIDEAAGSSTATISGLSPGVDYTITVYAWGEDSAGYMFMYSPISINYRTC","fold change in binding affinity, light against dark",YFP-SH2 [12],~330 fold
same,Kd,YFP-SH2 [6],60 µM and 42 µM
same,koff,YFP-SH2 [6],0.2 s⁻¹ and 0.24 s⁻¹
same,kon,YFP-SH2 [6],3300 M⁻¹ s⁻¹ and 5800 M⁻¹ s⁻¹
same,Kd,YFP-SH2 [7],87 µM
same,koff,YFP-SH2 [7],0.25 s⁻¹
same,kon,YFP-SH2 [7],2900 M⁻¹ s⁻¹
same,Kd,YFP-SH2 [13],63 µM
same,koff,YFP-SH2 [13],0.23 s⁻¹
same,kon,YFP-SH2 [13],4000 M⁻¹ s⁻¹
"OptoMBV416I_G528A_N538E (His6-SUMO tagged) (designed binder, also called OptoMBTriple) HHHHHHGSGSGSDQEAKPSTEDLGDKKEGEYIKLKVIGQDSSEIHFKVKMTTHLKKLKESYCQRQGVPMNSLRFLFEGQRIADNHTPKELGMEEEDVIEVYQEQTGGHMASKGSSVSSVPTKLEVVAATPTSLLISWDAPMSSSSVYYYRITYGETGGNSPVQEFTVPYSGLERIEKNFIITDPRLPDNPIIFASDSFLQLTEYSREEILGRNCRFLQGPETDRATVRKIRDAIDNQTEVTVQLINYTKSGKKFWNLFHLQPMRDQKGDVQYFIGVQLDGTEHVRDAAEREAVMLIKKTAEEIDEAAGSSTATISGLSPGVDYTITVYAWGEDSAGYMFMYSPISINYRTC",Yield (% of recovery from the resin),YFP-SH2 [5],29.8%
same,Yield (% of recovery from the resin),SH2-PDC1 [14],39%
same,Kd,YFP-SH2 [15],> 100 µM
same,koff,YFP-SH2 [15],0.1 s⁻¹ and 0.13 s⁻¹
same,kon,YFP-SH2 [15],< 1000 M⁻¹ s⁻¹
same,Resin Capacity,YFP-SH2 [8],4.5 mg/mL
same,Resin Capacity,SH2-PDC1 [16],5.24 mg/mL
"HA4-AsLOV2 chimera, SS58 insertion, untagged (OptoMB) (designed binder, Used as crude E. coli extract in the pull-down screen; also called alphaSH2 OptoMonobody; EZ-L706) GSSVSSVPTKLEVVAATPTSLLISWDAPMSSSSVYYYRITYGETGGNSPVQEFTVPYSGLERIEKNFVITDPRLPDNPIIFASDSFLQLTEYSREEILGRNCRFLQGPETDRATVRKIRDAIDNQTEVTVQLINYTKSGKKFWNLFHLQPMRDQKGDVQYFIGVQLDGTEHVRDAAEREGVMLIKKTAENIDEAAGSSTATISGLSPGVDYTITVYAWGEDSAGYMFMYSPISINYRTC","band intensity, dark against light",His6-YFP-SH2,~2.1 fold
